Test results published in patent publication US20200308299A1 (published 2020).
Substitutions are numbered along the chain they refer to. Blank lines part the entries; values can stand above or below the binder they belong to.

What was measured:
[1] = target: T1, human Glypican-1 (UniProt P35052 24-530); experiment: FACS
T1 chain: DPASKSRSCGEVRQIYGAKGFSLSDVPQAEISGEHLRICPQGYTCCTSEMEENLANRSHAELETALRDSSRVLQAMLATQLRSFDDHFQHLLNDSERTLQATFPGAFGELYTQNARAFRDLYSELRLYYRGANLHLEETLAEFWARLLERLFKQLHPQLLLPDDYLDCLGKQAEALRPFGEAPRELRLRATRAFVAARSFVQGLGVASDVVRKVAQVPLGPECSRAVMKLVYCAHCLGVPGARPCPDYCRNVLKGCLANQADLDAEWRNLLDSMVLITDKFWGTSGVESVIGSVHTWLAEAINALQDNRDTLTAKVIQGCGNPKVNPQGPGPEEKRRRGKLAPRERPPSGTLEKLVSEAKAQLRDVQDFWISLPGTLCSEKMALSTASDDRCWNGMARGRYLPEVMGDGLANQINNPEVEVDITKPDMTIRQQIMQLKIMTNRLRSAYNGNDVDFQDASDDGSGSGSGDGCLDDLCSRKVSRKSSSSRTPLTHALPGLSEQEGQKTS

[2] = target: T1, human Glypican-1; experiment: Biacore
[3] = target: clone18; experiment: FACS
[4] = target: clone4; experiment: FACS
[5] = target: clone18; experiment: Biacore
[6] = target: clone4; experiment: Biacore

B1: anti-Glypican-1 antibody clone K090-01a030 (antibody, V domains shown)
VH: QVQLQQSGAELVRPGTSVKMSCKAAGYTFTNYWIGWVKQRPGHGLEWIGDIYPGGGYTHYNEKFKGKATLTADTSSSTAYMQLSSLTSEDSAIYYCARERVYYDGSRYFDVWGAGTTVTVSS
VL: DIKMTQSPKFLPVSAGDRVTMTCKASQSVGNNVAWYQQKPGQSPKLLIYYASNRYTGVPDRFTGSGSGTDFTFTISSVQVEDLAVYFCQQHYSSPWTFGGGTKLEIKR
Kd [1]: 5.24 nM
Kd [2]: 42.8 nM

B3: anti-Glypican-1 antibody clone K090-01a017 (antibody, V domains shown)
VH: B1 VH with Q1E, A9G, I51L, Y103F
VL: B1 VL with D1S, K3V, S7T
Kd [1]: 5.92 nM
Kd [2]: 24.9 nM

B4: anti-Glypican-1 antibody clone K090-01a026 (antibody, V domains shown)
VH: B1 VH with Q3H, Y108F
VL: B1 VL with K3V, T5S
Kd [1]: 11.2 nM
Kd [2]: 12400 nM

B5: anti-Glypican-1 antibody clone K090-01a042 (antibody, V domains shown)
VH: QVQLQQPGAELAKPGASVKMSCKASGYTFTRYWMHWVKQRPGQGLEWIGYINPSSGYTEYNQKFKDKATLTADKSSSTAYMQLSSLTSEDSAVYYCVRLGDYSYYFDYWGQGTTLTVSS
VL: DVVMTQTPLSLPVSLGDQASISCRSSQSIVHSNGNTYLEWYLQKPGQSPKLLIYKVSNRFSGVPDRFSGSGSGTDFTLKISRVEAEDLGVYYCFQGSHVPWTFGGGTKLELKR
Kd [1]: 6.36 nM
Kd [2]: 16.2 nM

B8: anti-Glypican-1 antibody clone K090-01a009 (antibody, V domains shown)
VH: EVQLQQSGPELVKPGASVEISCKASGYSFTGYFMNWVKQSQGKSLEWIGRINPDNGDIFYNQKFKGKATLTVDKSSSTAHMELRSLTSEDSAVYYCARSWNWYFDVWGAGTTVTVSS
VL: DIQMTQSPASLSASVGETVTITCRASENIYSYLAWYQQKQGKSPQLLVYNAKTLAEGVPSRFSGSGSGTQFSLKINSLQPEDFGSYYCQHHYGTPYTFGSGTKLEIKR
Kd [1]: 4.47 nM
Kd [2]: 26.9 nM

B9: GPC1 (other)
chain: T1 chain
Kd [3]: 1.52 nM
Kd [4]: 0.804 nM
Kd [5]: 3.21 nM
Kd [6]: 3.21 nM

B10: anti-Glypican-1 antibody clone K090-02b006 (antibody, V domains shown)
VH: EVQLVESGGGLVKPGGSRKLSCAASGFTFSDYGMHWVRQAPEKGLEWVAYISSGSSTIYYADTVKGRFTISRDNAKNTLFLQMTSLRSEDTAIYYCVRHSYYNYDIGGYYAMDYWGQGTSVTVSS
VL: DIVLTQSPSSLSASLGERVSLTCRASQEISGYLSWLQQKPDGTIKRLIYAASTLDSGVPKRFSGSRSGSDYSLTISSLESEDFADYYCLQYASYPLTFGAGTKLEIKR
Kd [1]: 3.2 nM
Kd [2]: 16.3 nM

B12: anti-Glypican-1 antibody clone K090-02a010 (antibody, V domains shown)
VH: B10 VH with Q3K, S52N, E89G, I93M, V97A, N103S, I106V, Y109D, A111V
VL: DIVLTQSPKFMSTSVGDRVSITCKASQDVGTAVAWYQQKPGQSPKLLIYWASTRHTGVPDRFTGSGSGTDFTLTISNVQSEDLADYFCQQYSSYPLTFGAGTKLEIKR
Kd [1]: 2.25 nM
Kd [2]: 1.28 nM

More lines, in order of falling Kd [1], values ahead:

Kd [1]: 2.25 nM
Kd [2]: 1.12 nM
B11: anti-Glypican-1 antibody clone K090-02a002 (antibody, V domains shown)
VH: B10 VH with Q3K, I93M, V97A, N103S, I106V, Y109D, A111V
VL: B12 VL with L4M, T5S

Kd [1]: 1.72 nM
Kd [2]: 2.52 nM
B7: anti-Glypican-1 antibody clone K090-02a014 (antibody, V domains shown)
VH: EVQLQQSGPELVKPGASVKISCKASGYSFTGYYIHWVKQSPEKSLEWIGEINPSTGDITYNQKFKAKATLTVDKSSSTAYMQLKSLTSDDSAVYYCARERNYDRFAYWGQGTLVTVSS
VL: SIVMTQTPALMAASPGEKVTITCSVSSSISSSNLHWYQQKSETSPKPWIYGTSNLASGVPVRFSGSGSGTSYSLTISSMEAEDAATYYCQQWSSYPLTFGAGTKLEIKR

Kd [1]: 0.638 nM
Kd [2]: 4.99 nM
B2: anti-Glypican-1 antibody clone K090-01a002 (antibody, V domains shown)
VH: EVQLQQSGPELVKPGASVKISCKSSGYSFTRYYMHWVKHSPEKSLEWIGEINPSTGDTTYNQKFKAKATLTVDKSSSTAYMQLKSLTSEDSAVYYCAREKRDDGVLAYWGQGTLVTVSS
VL: B1 VL with K3Q, W96L, G100A, I106L

Kd [1]: 0.583 nM
Kd [2]: 8.9 nM
B6: anti-Glypican-1 antibody clone K090-01a033 (antibody, V domains shown)
VH: B2 VH with E1Q, Q5K, S24A, R31G, H39Q, L106F
VL: DIVMSQSPKSMSMSVGERVALSCKASENVGTYVSWYQQKPEQSPKLLIYGASNRYTGVPDRFTGSGSATDFTLTISSVQAEDLADYYCGQSYSYPLTFGAGTKLELKR
